Source: the DeepSol protein solubility set

assay: soluble on expression in E. coli; label from the status in PepcDB or PDB records

Sequence | soluble on expression in E. coli
MSLNLNVLEIKSFVPAQDFTTSKQFYLSLGFELITEFGDVAYLRLGQCAFLLQNTHQRPHQGNTMMHLLVEDAQSWFDHVKTLQLEERFESKVTDLITQPWGMLEFCLVDPSDVLWRIGQRIGEGHHHHTTDPNSSSVDKLAAALEHHHHHH | soluble
MSLNLSKTLKHVYQEAKVSDLFPITHLNSPCIFESQSGLVGSVIKVNGAAFEIEEAETLNHQRFLLHQALVSLDSRFIIYVTTHRQKISCPLIGEFKPGFAKDLDERYQQRFKDKNLYKNTLYITVVLKGDDTSKTGSWLKWAKSLSIKGNSELSEHHREQSIQTLNRVVEQLQANLNPFEATILGKQDEVLGFSELLQFLGLVVNAGQTTSFKHPVCSPPIANSIPQTFKQEVKYPEGHLGQYLSSCQLLFGECIQFQGNTQKDCVFGAMLSLKKYPTNTASILLDSMLSLDCEFIATHTFAPIGRDSALDTISKKRSKLLSAEDKALSQTTALSDLEDGIASETLLLGAHHHTVMLLAPNKSLLDAAILEATKRYGSAGIVVVKETLGLEPAFWSQLPCNQHFITRASLITSQNFVDFCPLHNTQTGFSNENFLGGAVTLLETPSKTPVYFNYHARGSKTEGHHHHHH | soluble
MSLNNKGSGLTPAQALDKLDALYEQSVVALRNAIGNYITSGELPDENARKQGLFVYPSLTVTWDGSTTNPPKTRAFGRFTHAGSYTTTITRPTLFRSYLNEQLTLLYQDYGAHISVQPSQHEIPYPYVIDGSELTLDRSMSAGLTRYFPTTELAQIGDETADGIYHPTEFSPLSHFDARRVDFSLARLRHYTGTPVEHFQPFVLFTNYTRYVDEFVRWGCSQILDPDSPYIALSCAGGNWITAETEAPEEAISDLAWKKHQMPAWHLITADGQGITLVNIGVGPSNAKTICDHLAVLRPDVCYIGHCGGLRKVRPLADYVLAHAYLRDDHVLDAVLPPDIPIPSIAEVQRALYDATKLVSGRPGEEVKQRLRTGTVVTTDDRNWELRYSASALRFNLSRAVAIDMESATIAAQGYRFRVPYGTLLCVSDKPLHGEIKLPGQANRFYEGAISEHLQIGIRAIDLLRAEGDRLHSRKLRTFNEPPFREGHHHHHH | soluble
MSLNPSESRSIAALREIVESARPLSYIRSSEEQRVERLLKDAAQRFFSTKVPVWTWSLTEGLRCDDGAVDASASDPRAALDFIAAYQGPALFHLKDFHEPLRERADIRRRLRDLYGACFDQGKFVVISSPVRYIPEELGRSIMYIELTLPDLAELIGFLREEVHAVKALGGSADTDDATLTQIARALQGLTLDESRHAIRRALAAGGGLGADSLPALYEEKRLLVNRTGMIQYVADGTQIASVGGLEIMKKWLMERRELFQLRDSISAEIVPKGVLIMGVSGCGKSLSVKAIASAFGLPLYRIDMTEIFSGRHGSAEGAFVSACRMLEQIAPAVVWFDEIEMGVNSTESAGEQGRIFAFFLTWMQEKTSGLFVAATANRIDLLPAEMTRKGRFDEIFFVDLPLDDERVEIFRIHLERRGIDTTPFDLTRLIKITKGWVGAEVEQCVVSALTTAHLDNREVTVEDLLRAAGKIVPLSKTMKEQVDHIRSWAYNRAVRASEGHHHHHH | soluble
MSLNQLFCHPETITIKKAVYYDIAPIPLPTPFKDGTGGVRHASFFKGWMKIYDEDGFCGQGPAGPLMTDFFLPRMLNAPGKSNGEWMEYFWWEIRNFGYQSPYIPEMTNLDWLLLDLLANRAGLPLHRFLGADRDWACVYKGGGSVLLSDEALISDLQRFKDEGYKTTKFKIGGSGPDFSQDIRRLEKARQALGDGFGIAVDANQAWDAKTAFAFAKEAAPLGVAWLEEPVHAYDMDALRELRDLLDEAGIAMEIAMGESVRSYHTHVAYAEHGVDHLQPARLYCIAENMRVREYARRHGCRISTGGFTFQNAALGALYSEDELLEYHQPLNEVLVPYFSLVSEMKDGRFYLPDVPGLPVHLDFERLERDGLLRGIQFYYHKEGHHHHHH | soluble
MSLNRLDVMILKILAEADRPMGSGRIAELIEERFGEKYSTRSIRYRLQKMEERGLIRRVRRNDRVVGAEITEWGLTMLKTETSSERVGMYISLIEEMAYRCSFDPEVMKGKVVCNISVVKREHLDDFLDAVVETYRAGISPSPLVAVKEDLSDHDVEVGEDEVAVLTVCSVTIDGVLINRGIPVTPVCGGLLYLEDGEPLGMQEYIKYEGSTVDPLHVFVAKGMTQVERVLETGTGLVPANVRYVPWAALEDVEHVERELEKADIRGIVDVPKVEGEILGIPLPPRSLGIVAYGGLVPVALLEERGISTRTYPTRTLVEYSSLEDARRYEGHHHHHH | soluble
MSLNRPEADREALWKIVHDRCEFGYRRTGAYAPCTFVDEQSGTALYKADFDPYQFLLIPLARITGIEDPALRESAGRNYLYDAWAARFLVTARLNNSLPESDVVLTINPKNARTQDQLHIHISCSSPTTSAALRNVDTSEYVGWKQLPIDLGGRRFQGLAVDTKAFESRNLFRDIYLKVTADGKKMENASIAVANVAQDQFLLLLAEGTEDQPVAAETLQDHDCSITKSEGHHHHHH | not soluble
MSLNSEAKSRIACDIDFDRDGRQAGYARAPLSRNNSGWGTVEIPITVVKNGSGPTVLLTGGVHGDEYEGQIAISDLARRLRPEEVQGRVIMLPAVNMPAIQSDTRLSPVDGRDINRCFPGDPRGTFSQMLAHFLDSVILPMADISVDMHTAGHSYDSTPSTNMHYLADPALRARTLAAAEAFGAPHNVVFGGVDEGSTFTSCVERRGIVSLGTELGGWGRVNIEGVRIGKRGILNVLKHMGVIEGTPETAQRGGAAGTRHMMVREADAYVMAPRTGLFEPTHYVGEEVRTGETAGWIHFVEDVDTAPLELLYRRDGIVWFGAGPGRVTRGDAVAVVMEDYNDTWPQEGHHHHHH | soluble
MSLNSQEMVLGNAWLVLADRVIEHGWVAIADGVIAEVGEGDAPNGAKDMHGDLVMPGLVELHTDHLEAHYTPRPKVQWNPVAAVVSYDGQLATCGITTVLDSLRVWREEGAEEVDGQAIVLAGAISTARDAQLLRADHFLHLRCEIPMPNVVAEAKELIDRPDIRLMSLMDHTPGQRQFRDEEKLRDYYRGKGAGMTDAELDVMFARRVYCKENYADANMRAIVELAHRYEIPLASHDDTTPENVADAIRDRVAVAEFPTTLEAARELHQAGIDILMGAPNVVRGGSHSGNIAAIDLAHEGLLDILSSDYIPSSLLIAALQLPMRAPGIDLAAAIRTVTKAPAEAVGLNDRGEISKGKRADLIRVHVAHDVPAVRSVWREGQRVAEGHHHHHH | not soluble
MSLNSSEHKIRITPLGGLGEIGGNISVFETNKDAIIVDIGMSFPDGTMHGVDIIIPDFDYVRKIKDKIRGIVITHAHEDHIGAVPYFFKEFQFPIYATPLALGMISNKFEEHGLKAERKWFRPVEKRRVYEIGEFDIEWIHITHSIIDASALAIKTKAGTIIHTGDFKIDQTPIDGYPTDLGRLAYYGEEGVLCLLSDSTNSYKEGYTKSESSVGLTFDQIFARTKGRVIMSTFSSNIHRVYQAITYGLKYGRKVCVIGRSMERNLYTTMELGYIKLDRKIFIDADEVSKYKDNEVLIVTTGSQGETMSALYRMATDEHKFIKIKPTDQVIISAKAIPGNEASVSAVLDYLLKAGAKVAYQEFSEIHVSGHASIEEQKLMLTLTKPKFFLPVHGEYNHITKHKETAMKCGIPERNIYLMSDGDQVELEGHHHHHH | soluble
MSLNTGHASLAQWGMSCLQWQPEWSVLDIGCGGGANLLQILQRCPQGKAYGIDISPESVTFARKKNKKYLGTRCFIEQGGVHRLPYPDYAFDAVTAFETVYFWGNLQHAFTEVARVLKPGGSFLICCEISDPANKAWTGLVEGMEIHSCDELKAILSKSGFTDTAIFRTKKEELCLVSHRQTVRLEGHHHHHH | soluble
MSLNVFNTASDEDIKKGLASDVYFERTISAIGDKCNDLRVAMEATVSGPLDTWINFTGLDEVLKLLEGLDVDLYAIPEGTILFPRDANGLPVPFIRVEGRYCDFGMYETAILGFICQASGISTKASKVRLAAGDSPFFSFGIRRMHPAISPMIDRSAYIGGADGVSGILGAKLIDQDPVGTMPHALSIMLGDEEAWKLTLENTKNGQKSVLLIDTYMDEKFAAIKIAEMFDKVDYIRLDTPSSRRGNFEALIREVRWELALRGRSDIKIMVSGGLDENTVKKLREAGAEAFGVGTSISSAKPFDFAMDIVEVNGKPETKRGKMSGRKNVLRCTSCHRIEVVPANVQEKTCICGGSMQNLLVKYLSHGKRTSEYPRPKEIRSRSMKELEYFKDISEGHHHHHH | soluble
MSLPNCLQCQSEYVYEDGLLLICPMCAFEWTPGEEATEEEGLVVLDSNGVRLSDGDTITVVKDLKVKGAPKDLKQGTRVKNIRLVEGDHNIDCKIDGFGAMKLKSEFVKKI | not soluble
MSLPPKFWIIIIVKKIDQQSLENAYRLFESGDIHQIEIGSTKGLQQIHHYLFNGLYEFAGKIREQNISKGHFRFANALYLKEALGKIEQMPEDTFENIINKYVEMNIAHPFLEGNGRSTRIWLDLVLKKHLGKVVNWQNVDKTQYLQAMERSPINDLEIRFLLQANLTDDVNNREIIFKGIEQSYYYEGYEKEEGGSHHHHHH | soluble
MSLPRLDARLKLVAAEIRGKIHADIGSDHGHLLAALLSADRIERGIAVENKLQPYRNSSATLERLNAEVRLGEGMDVIEENEIDSLSICGMGGQSIVRILSEHPNRLPKQLVLQPNQAIASVRQWARDNGYWLTDEKCTGTKRRFEVLVFSRFGPPHDPVYQKLNEVGLDESMGLMFGPWFLLRKDERLLQRLAEEQRYLQSKQNLTQTSRARVETIRRLLSSDHFLSREGHHHHHH | soluble
MSLPYSSSGVGHNGFDKADLHIHTKCSDGLFTPEEIVHKAIHVGLKAISITDHDTVTGIDQAKPLALELGLELIPGVEMSSAYKGYDIHILGYFFDYQQSELKGYLDHCRLLRTERAERMVQKLAKMGVKIEIEQIIMKAQNGSVGRPHIAAVLQDEGFVKSFSEAFSKYLGSHSPAYVKSIETHPEEVIRLINEAGGLSFLAHPAQNVPDEILRQLISFGLDGLEIIHPSHDTYRQNYYREIANEYFLLFSGGSDYHGPKDHEDNFGQVWIPYEWVTKMKSRLAPAVKEGHHHHHH | soluble
MSLQCALYDAGRCRSCQWITQPIPEQLSAKTADLKNLLADFPVEEWCAPVSGPEQGFRNKAKMVVSGSVEKPLLGMLHRDGTPEDLCDCPLYPASFAPVFAALKPFIARAGLTPYNVARKRGELKYILLTESQSDGGMMLRFVLRSETKLAQLRKALPWLQAQLPQLKVITVNIQPVHMAIMEGETEIYLTEQQALVERFNDVPLWIRPQSFFQTNPAVASQLYATARDWVRQLPVKHMWDLFCGVGGFGLHCATPDMQLTGIEIALEAIACAKQSAAELGLTRLQFQALDSTQFATAQGEVPELVLVNPPRRGIGKPLCDYLSTMAPRFIIYSSCNAQTMAKDIRELPGYRIERVQLFDMFPHTAHYEVLTLLVKMEGHHHHHH | soluble
MSLQDTWGGKMNTLGDRVLLCNDKRSLPAAAVATPFLFESMLFSVCTRGYARLLIDSREIEVKEGELLVVMPRKTIEVIESSCFRAFHLCLDKEILALSAIRISGFISIINKLHSNEPFRPERMEKDFLTATLDLIRNALQNGGRHQEEIVIYLISSLFLFLDDMIADEVEKDCKHTRSETICRDFLLLVSEHHKEQHTVKFYADRLCLSSKHLALTIKTVMGQSASKVINSFIIQQAKSLLRYTDKTVQEIGYELNFSTQSFFGKYFKQHTGMSPGEYRSQEARNRQSEES | not soluble
MSLQGLWIYPEDTEVLGVACKSLLKALTPRYQKVALFSPISGGCESLEECESLNPLEFHSAISKQKALELASTAQEELLFETILKRYDELQSTHDFVINLGCAPKFFLNAPLDLNTILAKHLNASVVAVAQTSLEYLKAMHSHILKKEAPFAVGLFAGETLEKPHFLSMSLCKQQCELEADLIESVLQIKSEIITPLAFQRGLEKKAKKQIKKVVLPESEKMKGFEGHHHHHH | not soluble
